Source: the nanobody polyreactivity screen of Harvey et al. (2022)

Test: yeast display, Sf9 membrane polyspecificity reagent, FACS + sequencing; frameworks hold sequencing errors
Summary of the method: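 A nanobody's polyreactivity label depends on the gate it was sorted from. Yeast display cells were stained with 10% biotinylated, detergent-solubilized Sf9 membrane reagent for 1 hour at 4 °C, enriched on streptavidin microbeads and sorted by FACS. The low and high (top ~1%) gates were set on anti-HA fluorescence for expression and streptavidin fluorescence for reagent binding.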

Sequence | polyreactivity (PSR sort gate)
QDQLVESGGGLVQAGGSLRLSCAASGRIFTQNRMGWYRQAPGKERELVAVITSSGGSTYYADSVKGRFTISRDNAKNTVYLQMNSLKPEDTAVYYCAAQLVRYVGYYRFDYWGQGTQVTVSS | low polyreactivity
QVQLVESGGGLVQAGGSLRYSCAASGSIFYWYAMGWDRQAPGKERELVAGITYSGGNTYYADSVKGRFTISRDNAKNTVYLQMNSLKPEDTAVYDCAATRGYWRKWRMDYWGQGTQVTVSS | high polyreactivity
QVQLVESGGGLVQAGGSLRLSCAASGLTLYKNGMGWYRQAPGKERELVAVISRSGGRTYYADSVKGRFTISRDNAKNTVYLQMNSLKPEDTAVYYCAARQYGPRYTYYYWGQGTQVTVSS | high polyreactivity
QVQLVESGGGLVQAGGSLRLSCAASGSIFTAYTMGWYRQAPGKERELVAVISDSSGRTYYADSVKGRFTISRDNAKNTVYLQMNSLKPEVTAVYYCAAEYSDIYEYWGQGTQVTVSS | low polyreactivity
QVQLVESGGGLVQAGGSLRLSCAASGRIFGVNAMGWYRQAPGKVRELVAAIRYSGGSTYYADSVKGRFTISRDYAKNTVYLQMNSLKPEDTAVYYCAKARYTYSWSFGYWGQGTQVTVSS | low polyreactivity
QVHLVESGGGLVQAGGSLRLSCAASVRIISAYAMGWYRQAPGKERELVAAINGSGGSTYYADSVKGRFTISRDNAKNTVYLQMNSLKPEDTAVYYCAAKIDYPDARYFPYRYYYWGQGTQVTVSS | high polyreactivity
QVHLVESGGGLVQAGGSLRLSCAASGFTFESYAMGWYRQAPGKERELVAAISDGGGDTYYADSVKGRFTISRDNAKNTVYLQMNSLKQEDTAVYYCAAEWDGNWYRGAGGYDYWGQGTQVTVSS | low polyreactivity
QVQLVESGGGLVQAGGSLRLSCAASGSTIDIYAMGWYRQAPGKERELVAAISNSGDTYYADSVKGRFTISRDNAKNTVYLQMNSLKPEDTAVYYCAAPAAGDEYDYWGQGTQVTVSS | high polyreactivity
QVQLVESGGGLVQAGGSLRLSCAASGRTFGDKAMGWYRQAPGKERELVAAISWSGGRTYYADSVKGRFTISRDNAKNTVYLQMNSLKPEDTAVYYCAARNNRYPLYNYWGQGTQVTVSS | low polyreactivity
QVQLVESGGGIVQAGGSLRLSCAASGIIFPLYAMGWYRPAPGKERELVAAIRSTGGSTYYADSVKGRFTISRDNANNTVYLQMNSLKPEDTAVYYCNARQNRRQGNVGYWGQGTQVTVSS | low polyreactivity
QVQLVESGGGLVQAGGSLRLRCAASGIIFGTNAMGWYRQAPGKERELVAGITSSGDSTYYADSVKGRFTISRDNAKNTVYLQMNSLKAEDTAVYYCARDIRTREFDSWGQGTQVTVSS | low polyreactivity
QVQLVESGGGLVQAGGSLRLSCAASGRIFFRNVMGWYRQAPGKERELVATITSGGRTYYADSVKGRFTISRDNAKNTVYLQMNSLKPEDTAVYYCAAKRYLHRREYWGQGTQVTVSS | high polyreactivity
QVQLVESGAGLVQAGGSLRLSCDASGRTVNIYAMGWYRQAPGKERELVADISYSDGSTDYADSVKGRFTISRDNAKNTVYLQMNSLKPEDTAVYYCAAYYYYYYGFGQRYYSWGQGTQVTVSS | low polyreactivity
QVQLVESGGGLVQAGGSLRLSCAASGRTFGTNAMGWYRQAPGKERELVAAISRRGGSTYYADSVKGRFTISRDNAKNTVYLQMNSLKPEDTAVYYCAKTIGLKHEDEYWGQGTQVTVSS | low polyreactivity
QVQLVESGGGLVQAGGRLRLSCAASGSIFGRNAMGWYRAAPGKERELVAAITGSTYYADSVKGRFTSSRDNAKNTVYLQMNSLKPEDTAVYYCNADYDVGWTYDTEYNYWGQGTQVTVSS | low polyreactivity
QVQLVESGGGLVQAGGSLRLSCAASGSTFYYYAMGWYRQAPGKEREFVAAISWGGGSTRYADSVKGRFTISRDNAKNTVYLQMNSLKPEDTAVYYCAARYPHYDYYYWGQGTQVTVSS | high polyreactivity
QVQLVESGGGLVQAGGSLRLSFAASGRIFGGYGMGWYRQAPGKERELVAAIDADAGSTYYADSVKGRFTISRDNAKNTVYLQLNSLKPEDTAVYYCAPVDQVAVDKHDYWGQGTQVTVSS | low polyreactivity
QVQLVESGGGLVQAGGRLRLSCAASGRIFRYNAMGWYRQAPGKERELVASITSAGSTNYADSVKGRFTISRDNAKITVYLLMNSLKPEDTEVYYCNKRRAYGYYLFDYWGQGTQVTVSS | high polyreactivity
QVQLVESGGGLVQAGGSLRLSCAASGRIFFWYARGWYRQAPGKEWELVAGITSGGSTNYADSVKGRFTISRDNAKNTVYLQMNSLKPEDTAVYYCAKRSYRTHTYDYWGQGTQVTVSS | low polyreactivity
QVHLVESGGGLVQAGGSLRLSCAASGRTFPYNAMGWYRQAPGKERELVDAISSGGSTNYADSVKGRFTISRDNAKNTVYLQMNSLKPEDTAVYYCATKYQRRPYRYSYWGQGTQVTVSS | low polyreactivity
QVQLVESGGGLVQAGGSLRLSSAASGRTFAVYTMRWYRQAPGKEREFVARIRYSGGNTYYADSVKRRFTLSRDNAKNTVYLQMNSLKPEDTAVYSCAARSRYRVYGSRNFDYWGQGSQVTVSS | high polyreactivity
QVQLVESGGGLVQAGGSLRLICAASGRTIYIYTMGWYRQAPGKERELVASISWNGGRTYYADSVKGRFTISRDNAKNTVYLQMNSLKPEDTAVYYCAAQYGVYDYLGQGTQVTVSS | low polyreactivity

Sequence | polyreactivity (PSR sort gate)
QVQLVESGGGLVQAGGSLRLSCAASGITFGSYAMGWYRQAPGKERELVAAIRWRGGNTYYADSVKGRFTISRDNAKNTVYLQMNSLKPEDTAVYYCAARRYGYRYDQPYSNDYWGQGTLVTVSS | low polyreactivity
QVQLVESGGGLVQAGGSLRLSCAASGTFTGNAMGSYRQAPGKERELVAAITWSGGRTYYADSVKGRFTISRDNAKNTVYLQMNSLKPEDTAVYYCNAADEYLQERFWSDAFDYWGQGTQVTVSS | high polyreactivity
QVQLVESGGGLVQAGGSLRLSCAAAGRISYANAMGWYRQAPGKERELVASITYSAGSTYADSVKGRFTISRDNAKNTVYLQMNSLKPEDTAVYYCAKRPSQHYRSYLMDYWGQGTQVTVSS | low polyreactivity
QVQLVESGGGLVQAGGSLRLSCAASGSNFRSYAMGWYIQAPGKERELVAAITWGGNTYYADSVKGRFTISRDNAKNTVYLQMNSLKPEDTAVYYCAAKSYYTRRSKYDYWGQGTQVTVSS | high polyreactivity
QVQLVESGGGLVQAGGSLRLSCAASGFIFGYYAMGWYRQAPGKERELVAAISWSGVSTYYADSVKARFTISRDNAKNTVSLQMNSLKREDTAVYYCAFGYVLTGVFQARFDYWGQGTQVTVSS | high polyreactivity
QVQLVESGGGLVQAGGSLRLSCAASGRIFKRYAMGWYRQAPGKERELVAAISRGASTYYADSVKGRFTISRDNAKNTVYLQMNSLKPEDTAVYYCAAKGATPHYDYWGQGTQVTVSS | high polyreactivity
QVQLVESGGGLVQAGGSLRLSCAASGRTFDRNAMGWYRQAPGKERELVAAITSRGGRTYYADSVKGRFTISRDNAKNTVYLQMNSLKPEDTAVYYCAAQGRGHRFGDSRDNYWGQGTQVTVSS | high polyreactivity
QVQHVESRGGLDPAGGSLRLSCAASGRIFRGNAMGWSSQATGKERELVASITWRGTSTYYADSVKGRFTISRDIAMNTVYLQMNSLKPEDTAVYYCNAVTQTRGYYWGQGTQVTVSS | high polyreactivity
QVQLVESGGGLVQAGGSLRLSCAASGSIFVNNAMGWYRQAPGKERELVAAISSRSSRTFYADSVKGRFTISRDNAKNTVYLQMNSLKPEDTAVYYCAVKKRAPDGDYWGQGTQVTVSS | high polyreactivity
QVQLVESGVCLVQAGGSLRLSCAASGRIFYNYAMGWYRQAPGKERELVADISSSGTLTYYSDSVKGRFTISRDNAKNTVYLHMNSLKPEDTAVYYCAARYWFRFQYDYWGQGTQLTVSS | high polyreactivity
QVQLVESGGGLVQAGGSLRLSCAASGSIFLDYAMGWYRQAPGKERELVAGITISGGSTYYADSVKGRFTISRDNAKNTVYLQMNRLKPEDTAVYYCSKVAPRSSSSQEYYYWGQGTQVTVSS | low polyreactivity
QVQLVESGGGLVQAGGSLRLSCAASGRTFAPNAMGRSRQAPGKERELVAAITSIGTRTYYADSVKGRFTISRDNAKNTVYLHKNSLKTEVTAVYYCNKKRNADYDYWGQGTQVTVSS | low polyreactivity
HVQLVESGGGLVQAGGSLRLSCAASGGTFYTYVMGWYRPAPGKERELVAAISGSGGSTYYADSVKGRFTISRDNAKNTVYLQMNSLKPEDTAVYYCAAVLYYGDIPYYYWGQGTQVTVSS | high polyreactivity
QVQLVESGGGIVQAGGSLRLSCAASGFNFLRYAMGWYRQAPGKERELVAAISTSGGSTSYADSVKGRFTISRDNAKNTVYLQMNSLNPEDTAVYYCNAVLYKVSISEYDYWGQGTQVTVSS | high polyreactivity
QVQLVESGGGLVQAGGSLRLSCAASGGIFRYYALGWYRPAPGKERELVAASSRSGDSTYYADSVKGRFTISRDNAKNTVYLQMNSLKPEDTAVYYCAKDNDDVHLVHLDYNSDRYGYWGPGTQVTVSS | high polyreactivity
QVQLVESGGGLVQAGGSLRLSCAASGRTLYHYGMGWYRQAPGKERELVAAINFSGGSTNYADSVKGRFTISRDNAKNTVYLQMNSLKPEDTAVYYCNNEGRPDRDYWGQGTQVTVSS | low polyreactivity
QFQLEESGGGLVQAGGSLRLSCAASGSTFLRYAMGWYRQAPGKERELVAAITGRGTRTYYADSVKGRFTISRDNAKNTVYLQMNSLKPEDTAVYYCAAELSFTPRYYEGRIFYYWGQGTQVTVSS | high polyreactivity
QVQLVESGGGLVQAGGSLRLSCAASGFIFAWYAMGWYRQAPGKERELVAAIDYSDGTTYYADSVKGRFTISRDNAKNTVYLQMNSLKPEDTAVYYCAAYNEFVYEDDYWGQGTQVTVSA | low polyreactivity
QVQLVESGGGLVQAGGSHRLSCAASGSTYTYNAMGWYRQAPGKERELVAAISSSGGTTYYADSVKGRFTISRDNAKNTVYLQMTSLKPEDTAVYYCAKRWLYTSAFRIMDYWGQGTQVTVSS | high polyreactivity
QVQLVESGGGLVQAGGSLRLSCAASGRIFYRYAMGGYRQAPGKERELVASITTSGDSTYYADSVKGRFTISRDNAKNTVYLQMNSLKPEDTGVYYCAASSYRGRRYDYWGQGTQVTVSS | high polyreactivity
QVQLVESGGGLVQAGGSLRFSCAASGSTFQYYAMGWYRQAPGKERELVAAISYGGSRTYYADSVKGRFTISRDNAKNTVYLQMNSLKPEDTAVYYCANEKYRALAPYYYWGQGTQVTVSS | high polyreactivity
